Laboratory results as given in paper PMC2901922.

Legend:
Assay in all cases: EMSA
λN11 = molecular target: T1, λN11 (bacteriophage λ, UniProt P03045 1-11)
T1 chain: MDAQTRRRERR

Acr-Link2-λN22 = molecular target: T2, Acr-Link2-λN22 (bacteriophage λ, UniProt P03045 1-22)
T2 chain: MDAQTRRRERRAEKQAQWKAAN

λN22 = molecular target: T3, λN22 (bacteriophage λ, UniProt P03045 1-22)
T3 chain: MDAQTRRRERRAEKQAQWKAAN

Measured: binding result

GCCCUGAAAAAGGGC (structured_RNA) [λ boxB 15mer]
binds: λN11 | Acr-Link2-λN22 | λN22
